Data on one protein can be found in article PMC2992962 (Protein expression and purification, 2010).

A word on the stoichiometry N: it is a count of units in the complex or per binding partner.

This data set concerns the molecule itself. As to the kind of experiment: SEC.

B1: recombinant human his-GAPDHS (sperm-specific glyceraldehyde-3-phosphate dehydrogenase lacking the proline-rich N-terminal sequence) (enzyme)
chain: MVSVARELTVGINGFGRIGRLVLRACMEKGVKVVAVNDPFIDPEYMVYMFKYDSTHGRYKGSVEFRNGQLVVDNHEISVYQCKEPKQIPWRAVGSPYVVESTGVYLSIQAASDHISAGAQRVVISAPSPDAPMFVMGVNENDYNPGSMNIVSNASCTTNCLAPLAKVIHERFGIVEGLMTTVHSYTATQKTVDGPSRKAWRDGRGAHQNIIPASTGAAKAVTKVIPELKGKLTGMAFRVPTPDVSVVDLTCRLAQPAPYSAIKEAVKAAAKGPMAGILAYTEDEVVSTDFLGDTHSSIFDAKAGIALNDNFVKLISWYDNEYGYSHRVVDLLRYMFSRDK
B1: the “stoichiometry N” value was 4.
